IntAct's records for PubMed 32852592

B1: Mitogen-activated protein kinase 13 (Homo sapiens), O15264 (parent)
chain: MSLIRKKGFYKQDVNKTAWELPKTYVSPTHVGSGAYGSVCSAIDKRSGEKVAIKKLSRPFQSEIFAKRAYRELLLLKHMQHENVIGLLDVFTPASSLRNFYDFYLVMPFMQTDLQKIMGMEFSEEKIQYLVYQMLKGLKYIHSAGVVHRDLKPGNLAVNEDCELKILDFGLARHADAEMTGYVVTRWYRAPEVILSWMHYNQTVDIWSVGCIMAEMLTGKTLFKGKDYLDQLTQILKVTGVPGTEFVQKLNDKAAKSYIQSLPQTPRKDFTQLFPRASPQAADLLEKMLELDVDKRLTAAQALTHPFFEPFRDPEEETEAQQPFDDSLEHEKLTVDEWKQHIYKEIVNFSPIARKDSRRRSGMKL

Variants of: B1
Conditions: with stat3_human STAT3, P40763
stat3_human STAT3, P40763, sequence (P40763 whole entry): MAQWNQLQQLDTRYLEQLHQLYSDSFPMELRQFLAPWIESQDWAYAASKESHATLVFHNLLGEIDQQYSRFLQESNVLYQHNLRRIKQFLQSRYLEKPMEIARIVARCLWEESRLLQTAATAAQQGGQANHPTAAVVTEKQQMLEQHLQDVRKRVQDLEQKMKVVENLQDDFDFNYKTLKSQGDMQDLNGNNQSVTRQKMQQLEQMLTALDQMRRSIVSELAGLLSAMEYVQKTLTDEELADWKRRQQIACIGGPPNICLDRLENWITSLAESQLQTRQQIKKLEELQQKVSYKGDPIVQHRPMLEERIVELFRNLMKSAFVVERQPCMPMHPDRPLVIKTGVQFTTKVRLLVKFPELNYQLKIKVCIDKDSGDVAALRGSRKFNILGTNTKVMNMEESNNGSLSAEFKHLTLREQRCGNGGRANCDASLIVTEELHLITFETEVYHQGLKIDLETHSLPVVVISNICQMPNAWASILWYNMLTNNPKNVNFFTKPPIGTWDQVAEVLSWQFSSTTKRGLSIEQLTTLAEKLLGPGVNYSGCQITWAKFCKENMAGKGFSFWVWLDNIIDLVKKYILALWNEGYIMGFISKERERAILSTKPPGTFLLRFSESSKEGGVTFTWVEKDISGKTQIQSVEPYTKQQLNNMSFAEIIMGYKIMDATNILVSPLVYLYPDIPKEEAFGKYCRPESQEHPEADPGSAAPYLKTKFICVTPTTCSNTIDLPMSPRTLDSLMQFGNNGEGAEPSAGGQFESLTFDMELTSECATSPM

| effect of a mutation on the interaction | Variant |
| --- | --- |
| with no effect | T180A;Y182A |
